Laboratory results published in patent EP4491631A1.

Columns and labels:
[1] = target: IL-2R on murine splenocytes (mouse) (UniProt P16297); assay: cell-based or functional assay
[2] = target: CD122/CD132 complex (His-tagged, Acro Biosystem ILG-H5283) (UniProt P14784); assay: SPR, CD122/CD132 captured on NTA chip
Chain of CD122/CD132 complex (His-tagged, Acro Biosystem ILG-H5283) (P14784 27-239 limits assumed, chain 1 of 2): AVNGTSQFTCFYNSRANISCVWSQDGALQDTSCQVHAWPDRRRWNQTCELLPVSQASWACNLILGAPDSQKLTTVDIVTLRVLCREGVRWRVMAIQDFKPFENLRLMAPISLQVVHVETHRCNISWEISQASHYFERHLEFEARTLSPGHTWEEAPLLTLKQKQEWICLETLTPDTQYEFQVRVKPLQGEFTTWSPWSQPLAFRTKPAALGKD
Chain of CD122/CD132 complex (His-tagged, Acro Biosystem ILG-H5283) (P31785 23-262 limits assumed, chain 2 of 2, further chain): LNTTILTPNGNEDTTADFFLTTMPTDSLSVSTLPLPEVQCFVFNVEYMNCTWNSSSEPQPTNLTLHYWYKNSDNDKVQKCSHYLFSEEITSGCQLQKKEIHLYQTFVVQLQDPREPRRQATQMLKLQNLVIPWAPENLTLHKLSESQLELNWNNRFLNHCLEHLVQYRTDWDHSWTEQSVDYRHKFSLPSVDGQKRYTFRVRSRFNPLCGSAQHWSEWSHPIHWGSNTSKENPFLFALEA

Chain of IL-2R on murine splenocytes (mouse) (P16297 27-539, chain 1 of 2): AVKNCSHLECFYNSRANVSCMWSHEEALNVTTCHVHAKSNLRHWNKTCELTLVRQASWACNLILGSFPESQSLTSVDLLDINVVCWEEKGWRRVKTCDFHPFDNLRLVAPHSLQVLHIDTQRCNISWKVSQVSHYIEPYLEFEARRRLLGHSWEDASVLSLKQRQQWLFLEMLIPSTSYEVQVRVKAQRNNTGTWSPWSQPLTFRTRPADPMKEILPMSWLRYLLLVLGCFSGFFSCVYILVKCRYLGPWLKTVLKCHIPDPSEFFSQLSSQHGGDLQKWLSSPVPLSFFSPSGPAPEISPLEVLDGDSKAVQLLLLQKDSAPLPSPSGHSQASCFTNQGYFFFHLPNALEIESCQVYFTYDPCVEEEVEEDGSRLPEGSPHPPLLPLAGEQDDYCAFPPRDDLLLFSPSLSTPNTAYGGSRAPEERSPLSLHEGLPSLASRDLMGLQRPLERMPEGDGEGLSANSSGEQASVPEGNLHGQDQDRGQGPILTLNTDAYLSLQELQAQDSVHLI
Chain of IL-2R on murine splenocytes (mouse) (P34902 23-369, chain 2 of 2, further chain): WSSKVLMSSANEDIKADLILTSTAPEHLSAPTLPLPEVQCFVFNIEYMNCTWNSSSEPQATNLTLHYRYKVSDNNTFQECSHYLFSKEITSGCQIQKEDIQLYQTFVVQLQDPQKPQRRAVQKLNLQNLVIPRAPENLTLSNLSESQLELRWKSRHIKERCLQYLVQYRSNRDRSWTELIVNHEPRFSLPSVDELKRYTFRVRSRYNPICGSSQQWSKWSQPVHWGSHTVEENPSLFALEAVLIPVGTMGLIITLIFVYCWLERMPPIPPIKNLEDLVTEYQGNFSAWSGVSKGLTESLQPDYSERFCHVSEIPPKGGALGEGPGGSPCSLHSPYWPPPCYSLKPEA

Proleukin (ligand)
EC50 CD8 cells (pSTAT5) [1]: 4.1 nM | EC50 NK cells (pSTAT5) [1]: 1.4 nM | EC50 Treg cells (pSTAT5) [1]: < 16 pM | EC50 pSTAT5 on CD8 cells [1]: 11.9 nM | EC50 pSTAT5 on NK cells [1]: 2.51 nM | EC50 pSTAT5 on Treg cells [1]: < 20 pM | Kd [2]: 0.42 nM
